According to patent US20030215453A1:

Assays:
[1] = target: VpreB1 protein (Homo sapiens (Human)) (UniProt P12018); experiment: flow cytometry, 1 ug FITC-conjugated antibody on 1x10^6 GA-10 cells (endogenous VpreB1)
[2] = target: VpreB1 protein (Homo sapiens (Human)) (UniProt P12018); experiment: flow cytometry, 1 ug FITC-conjugated antibody on 1x10^6 CA46 cells (endogenous VpreB1)
[3] = target: VpreB1 protein (Homo sapiens (Human)) (UniProt P12018); experiment: flow cytometry, 1 ug FITC-conjugated antibody on 1x10^6 HT cells (no detectable VpreB1 mRNA in Table 1; in effect a VpreB1-negative line)

Chain of UniProt P12018 (P12018 20-145 limits assumed): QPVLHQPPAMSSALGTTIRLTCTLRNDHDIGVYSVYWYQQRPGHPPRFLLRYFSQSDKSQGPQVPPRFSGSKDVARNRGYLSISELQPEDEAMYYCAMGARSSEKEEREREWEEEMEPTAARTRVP

% of cells surface labeled (gate M1) [1]: 91%
% of cells surface labeled (gate M1) [2]: 69%
% of cells surface labeled (gate M1) [3]: 3%
Substance: FITC-conjugated anti-VpreB1 monoclonal antibody (Serotec, Raleigh, N.C.)
